From the nanobody polyreactivity screen of Harvey et al. (2022)

Assay: yeast display, Sf9 membrane polyspecificity reagent, FACS + sequencing; frameworks hold sequencing errors
How it was run: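 Synthetic nanobody libraries on Saccharomyces cerevisiae BJ5465 were galactose-induced for 36–48 hours, stained 1 hour at 4 °C with 10% biotinylated, detergent-solubilized Sf9 membrane reagent and enriched on streptavidin microbeads. FACS then separated cells into low and high (top ~1%) gates by anti-HA (expression) and streptavidin (reagent binding) fluorescence. Genes were colony-PCR amplified, MiSeq 2 × 250 sequenced and CDR-length filtered. A clone's polyreactivity label is that of its gate of origin.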

| Sequence | polyreactivity (PSR sort gate) |
| --- | --- |
| QVQLVDSAGGLVHAGGSLRLSCAASGLTFYSNTMGWYRPPPGKERELVAGISWGGDTTYYADSVKGRFTISRDNAKNTVYLQMNSLKPEDTAVYYCAADRSYWRHRYSYDYWGQGTQVTVSS | low polyreactivity |
| QVQLVESGGGLVQAGGSLRLSCAASGNTFDYYTMGWYRQAPGKERELVAAISWNGGSTYYADSVKGRFTISRDNAKTTVYLQMNSLKPEDSAVYYCAVLYRSEYDWGQGTQVTVSS | low polyreactivity |
| QVQLVESGGGLVQAGGSLRLSCAASGFTFKLYAMGWYRQAPGNEREWVAAIRRGGTTNYADSVKGRFTISRDTAKNTVYLQMNSLKPEDTAVYYCAADGWYPGVYYPYTEFDYWGQGTQVTVSS | high polyreactivity |
| QVQLVESGGGLVQAGGSLRLSCAASGIIIQRNAMGWYRQAPGKERELVAAISIGGGSTYADSVKGRFTISRDNAMNTVYLQMNSLKPEDTAVYYCAADYSGASVLMDYWGQGTQVTVSS | low polyreactivity |
| QVQLVESGGGLFQAGGSLRLSSAASGFIFWTNVMGWYRQQPGKVRELVAGISKSGGSTYYADSVKGRFTISRDNAKNTVYLQMNCLKPEDTAVYYCAAPRPPAGRYGYWGQGTQVTVSS | high polyreactivity |
| QVQLVESGGGLVQAGGSLRLSCAASGGIFSSYAMGWYRQAPGKERELVATITSRGGSTYYADSVKGRFTISRDNAKNTVYLQMNSLKPEDTAVYYCAKEYRYYRRRYDYWGQGTQVTVSS | high polyreactivity |
| QVQLVESGGGLVQAGGSLRLSCAASGSIFPKYAMGWYRQAPGKERELVAAISRGGGSTYYADSVKGRFTISRDNAKNTVYLQMNSLKPEDTAVYYCAALFTPALSEYDYWGQGTQVTVSS | high polyreactivity |
| QVQLVESGGGLVQAGGSLRLSCAASGRTFKHYAMGWYRPAPGKERELVATITNTGGRTNYADSVKGRFTISRDNAKNTVYLQMYSLKPEDTAVYYCNRVNDYYRPGGRPFGIFDYWGQGTQVTVSS | low polyreactivity |
| QVQLVESGGGLVQAGGSLRLSCAASGRTFSIYAMGWYRQAPGKERELVAAISNGGRTKYADSVKGRFTISRDNAKNTVYLQMNSLKPEDTAVYYCNALAYNVPRYDYWGQGTQVTVSS | high polyreactivity |
| QLQLVESGGGLVQAGGSLRLSCAASGSIFHRYAMGWYRQAPGKEREFVAAISGRGGSTYYADSVKGRITISRDNAKNTVYLQMNSLKPEDTAVYYCAADSSLFYGRPRYYYWGQGTQVTVSS | high polyreactivity |
| QVQLVDSGGGLVQAGGSLRLSCAASGSTFWYNAMGWYRQAPGKERELVAANSISDGNTYYADSVKGRFTISRDNAKNTVFLQMYSLKPEDTAVYYCNAGYWYDGPDYITEYDYWGQGTQVTVSS | low polyreactivity |
| QVQLVESGGGLVQAGGSLRLSCAASGRIFDPNVMVRYRTAPGKERELVAAIRTSGGRTYYADSVKGRFTISRDNAKNTVYLQMNSLKPEDTAVYYCAALYKGKYDYWGQGTQVNVSS | high polyreactivity |
| QVQLVESGGGLVQAGGSLRLSCAASGRTFRYYAMGWYRQAPGKERELVAAIRRGGSTTYADSVKVRFTISRDNAKNTVYLQMNSLKPEDTAVYYCAARYPGTRGDGYWGQGTQVTVSS | high polyreactivity |
| QVQLVESGGGLVQAGGSLRLSCAASGYIFVYNAMGWYRQAPGKERELVAAITDGGGSTYADSVKGRFTISRDNAKNTVYLQMNSLKPEDTAVYYCAARYSDTTWYVLYYYWGQGTQVTVSS | low polyreactivity |
| QVQLVESGGGLVQAGGSLRLSSDASGSIFTAYSIGWYRQAPGKERELVADITQSAGSTYADSVKGRFTISRDNAKNTVYLQMNSLKPADTAVYYCAARYRYPYYARYGYWGQGTQVTVSS | high polyreactivity |
| QVQLVESGGGLVQAGGSLRLSCAASGRIFGYYAMGWYRQAPGKERELVAAIDSSGGSTTYADSVKGRFTISRDYAKNTVYLQMNSLKPEDTAVYYCNAGYALRSGPWYYYELDYWGQGTQVTVSS | low polyreactivity |
| QVQLVESGGGLVQAGGSQRLSCAASGSIFLRYAMGWYRQAPGKERELVAAITSSGGSTYYADSVKGRFTISRDNAKNTVYLQMTSLKPEDTAVYYCNRYSYLFPYYWKYDYWGQGTQVTVSS | high polyreactivity |
| QVQLVESGGGLVQAGGSLRLSCAASGRTFGVYAMGWYRQAPGKESELVAAISRLAGNTYYADSVKGRFTISRDNAKNTVYLQMNSLKPEDTAVYYCAADFSRQYGYWGQGTQVTVSS | high polyreactivity |
| QVQLVESGGGIVQAGGSLSLTWAASGSTFAYYAMGRYRQAPGKERELVAAISSSGGRTYYADSVKWRFTISRDNAKNTVYLQMIMLKPEDSAVYYCWGQATQVTVSS | low polyreactivity |
| QDQLVESGGGLVQAGGSLRLSCAASGLTFDWYTMGWYRQAPGKERELVATINSGGSTDYADSVKGRFTISRDNAKNTVYLQMNSLKPEDTAVYYCNAEYGYSGVGDDYWGQGTQVTVSS | low polyreactivity |
| QVQLVESGGGLVQAGGSLRLSCAASGNIFYGYAMGWYRQAPGKERELVAAITSDGITYYADSVKGRFTISRDNAKNTVYLQMNSLKPEDTAVYYCNVTQLYEYYKYYYWGQGTQVTVSS | low polyreactivity |
